Measured values as given in patent publication US20250043019A1 (Janssen / Centocor, published 2025).

Assays:
[1] = biological target: T1, cynomolgus monkey CD79b antigen (cynomolgus monkey); experiment: SPR Biacore 8k, cyno CD79b injected up to 3000 nM
T1 construct: also called cyno CD79b; CD9W1.001
Procedure: General Protocol for SPR Affinity Assessment: Affinity assessment of the bispecific trispecific constructs against human CD79b were measure using recombinantly expressed extracellular domain of CD79b short and long isoforms (CD9W7.001 and CD9W8.001, respectively) by Surface Plasmon Resonance (SPR) using a Biacore 8k SPR system (Biacore) at 25° C. in HBSP+ buffer. Cross-reactivity of the same antibody panel was also assessed against cyno and mouse antigens (CD9W1.001 and CD9W105.001, respectively). Briefly, a C1 sensor chip was immobilized with anti-human Fc (target immobilization levels of >400 RU) using vendor recommended amino coupling protocol. […] The association and dissociation phases were measured for 2 or 3 minutes and 30 minutes, respectively.
The raw binding sensorgrams were processed using Biacore Insight software (Biacore) by double-referencing and the processed sensorgrams were analyzed for cross-reactivity and fitted to a 1:1 Langmuir model to obtain on-rates, off-rates and affinities.

[2] = biological target: T2, human CD20 on the cell surface (human, UniProt P11836 1-297); experiment: cell-based or functional assay
T2 sequence (looked up): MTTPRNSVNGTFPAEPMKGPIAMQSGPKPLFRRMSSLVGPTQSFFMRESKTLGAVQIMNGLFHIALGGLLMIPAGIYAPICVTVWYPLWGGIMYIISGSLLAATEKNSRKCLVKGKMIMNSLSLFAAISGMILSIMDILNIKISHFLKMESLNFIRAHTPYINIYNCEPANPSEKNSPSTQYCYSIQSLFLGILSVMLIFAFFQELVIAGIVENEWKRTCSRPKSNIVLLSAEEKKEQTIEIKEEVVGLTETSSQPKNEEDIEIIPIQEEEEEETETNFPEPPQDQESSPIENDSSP

[3] = biological target: human CD3 on primary T cells (human, UniProt P07766 23-207); experiment: cell-based or functional assay
Sequence of human CD3 on primary T cells (P07766 23-207): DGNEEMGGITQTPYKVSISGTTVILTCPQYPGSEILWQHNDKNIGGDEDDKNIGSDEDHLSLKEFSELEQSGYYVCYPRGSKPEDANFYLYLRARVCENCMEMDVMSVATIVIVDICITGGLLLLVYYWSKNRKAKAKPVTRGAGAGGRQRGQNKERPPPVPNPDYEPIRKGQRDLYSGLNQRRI

B1: 79C3B601 CD79bxCD3 bispecific antibody (bispecific antibody, human IgG1, kappa, L234A L235A)
heavy: QVQLQESGPGLVKPSETLSLTCSVSGASISSFYWSWIRQPADEGLEWIGRISPSGKTNYIPSLKSRIIMSLDASKNQFSLRLNSVTAADTAMYYCARGEYSGTYSYSFDVWGQGTMVTVSSASTKGPSVFPLAPSSKSTSGGTAALGCLVKDYFPEPVTVSWNSGALTSGVHTFPAVLQSSGLYSLSSVVTVPSSSLGTQTYICNVNHKPSNTKVDKKVEPKSCDKTHTCPPCPAPEAAGGPSVFLFPPKPKDTLMISRTPEVTCVVVSVSHEDPEVKFNWYVDGVEVHNAKTKPREEQYNSTYRVVSVLTVLHQDWLNGKEYKCKVSNKALPAPIEKTISKAKGQPREPQVYTLPPSREEMTKNQVSLSCAVKGFYPSDIAVEWESNGQPENNYKTTPPVLDSDGSFFLVSKLTVDKSRWQQGNVFSCSVMHEALHNRFTQKSLSLSPGK
light: DIVMTQSPLSLSVTPGEPASISCRSSESLLDSEDGNTYLDWFLQKPGQSPQLLIYTLSYRASGVPDRFSGSGSDTDFTLHISSLEAEDVGLYYCMQRMEFPLTFGQGTKVEIKRTVAAPSVFIFPPSDEQLKSGTASVVCLLNNFYPREAKVQWKVDNALQSGNSQESVTEQDSKDSTYSLSSTLTLSKADYEKHKVYACEVTHQGLSSPVTKSFNRGEC
chain: EIVLTQSPATLSASPGERVTLSCSASSSVSYMNWYQQKPGQAPRRWIYDSSKLASGVPARFSGSGSGRDYTLTISSLEPEDFAVYYCQQWSRNPPTFGGGTKVEIKGGSEGKSSGSGSESKSTGGSQVQLVQSGAEVKKPGSSVKVSCKASGYTFTRSTMHWVKQAPGQGLEWIGYINPSSAYTNYNQKFQGRVTLTADKSTSTAYMELSSLRSEDTAVYYCASPQVHYDYAGFPYWGQGTLVTVSSEPKSSDKTHTCPPCPAPEAAGGPSVFLFPPKPKDTLMISRTPEVTCVVVSVSHEDPEVKFNWYVDGVEVHNAKTKPREEQYNSTYRVVSVLTVLHQDWLNGKEYKCKVSNKALPAPIEKTISKAKGQPREPQVYTLPPSREEMTKNQVSLWCLVKGFYPSDIAVEWESNGQPENNYKTTPPVLDSDGSFFLYSKLTVDKSRWQQGNVFSCSVMHEALHNHYTQKSLSLSPGK
notes: IgG1, knobs-in-holes, Fc-gamma-receptor-silencing mutations; HC1/LC = CD79b Fab arm, third chain = CD3 scFv-Fc arm; also called 79C3B601 bsAb; CD9B374 x CD3B2030-N106A
- Kd [1]: > 3000 nM

B2: mosunetuzumab (bispecific antibody)
chain 1: not shown
chain 2: DIQMTQSPSSLSASVGDRVTITCRASSSVSYMHWYQQKPGKAPKPLIYAPSNLASGVPSRFSGSGSGTDFTLTISSLQPEDFATYYCQQWSFNPPTFGQGTKVEIKRTVAAPSVFIFPPSDEQLKSGTASVVCLLNNFYPREAKVQWKVDNALQSGNSQESVTEQDSKDSTYSLSSTLTLSKADYEKHKVYACEVTHQGLSSPVTKSFNRGEC
chain 3: EVQLVQSGAEVKKPGASVKVSCKASGYTFTNYYIHWVRQAPGQGLEWIGWIYPGDGNTKYNEKFKGRATLTADTSTSTAYLELSSLRSEDTAVYYCARDSYSNYYFDYWGQGTLVTVSSASTKGPSVFPLAPSSKSTSGGTAALGCLVKDYFPEPVTVSWNSGALTSGVHTFPAVLQSSGLYSLSSVVTVPSSSLGTQTYICNVNHKPSNTKVDKKVEPKSCDKTHTCPPCPAPELLGGPSVFLFPPKPKDTLMISRTPEVTCVVVDVSHEDPEVKFNWYVDGVEVHNAKTKPREEQYGSTYRVVSVLTVLHQDWLNGKEYKCKVSNKALPAPIEKTISKAKGQPREPQVYTLPPSREEMTKNQVSLSCAVKGFYPSDIAVEWESNGQPENNYKTTPPVLDSDGSFFLVSKLTVDKSRWQQGNVFSCSVMHEALHNHYTQKSLSLSPGK
chain 4: not shown
- EC50, autologous B-cell depletion, donor D198013 [2]: 0.2 nM
- EC50, autologous B-cell depletion, donor D221837 [2]: 0.5 nM
- EC50, autologous B-cell depletion, donor D329465 [2]: 0.2 nM
- EC50 of CD8 T-cell activation, CARNAVAL, E:T 1:1, 48 hours [3]: 0.053 nM
- EC50 of CD8 T-cell activation, CARNAVAL, E:T 1:1, 72 hours [3]: 0.013 nM
- EC50 of CD8 T-cell activation, CARNAVAL, E:T 5:1, 48 hours [3]: 0.038 nM
- EC50 of CD8 T-cell activation, CARNAVAL, E:T 5:1, 72 hours [3]: 0.021 nM
- EC50 of CD8 T-cell activation, HT, E:T 5:1, 48 hours [3]: 0.148 nM
- EC50 of CD8 T-cell activation, HT, E:T 5:1, 72 hours [3]: 0.078 nM
- EC50 of CD8 T-cell activation, JEKO-1, E:T 1:1, 48 hours [3]: 0.022 nM
- EC50 of CD8 T-cell activation, JEKO-1, E:T 1:1, 72 hours [3]: 0.021 nM
- EC50 of CD8 T-cell activation, JEKO-1, E:T 5:1, 48 hours [3]: 0.043 nM
- EC50 of CD8 T-cell activation, JEKO-1, E:T 5:1, 72 hours [3]: 0.019 nM
- EC50 of CD8 T-cell activation, OCI-Ly10, E:T 1:1, 48 hours [3]: 0.045 nM
- EC50 of CD8 T-cell activation, OCI-Ly10, E:T 1:1, 72 hours [3]: 0.035 nM
- EC50 of CD8 T-cell activation, OCI-Ly10, E:T 5:1, 48 hours [3]: 0.256 nM
- EC50 of CD8 T-cell activation, OCI-Ly10, E:T 5:1, 72 hours [3]: 0.12 nM
- EC50 of CD8 T-cell activation, WILL-2, E:T 5:1, 48 hours [3]: 1.24 nM
- EC50 of CD8 T-cell activation, WILL-2, E:T 5:1, 72 hours [3]: 1.27 nM
